Experimental data reported in the supplement of paper PMC10065799, “High-throughput profiling of sequence recognition by tyrosine kinases and SH2 domains using bacterial peptide display” (eLife, 2023).

What follows are sequences tested against EPHB2 (UniProt P29323) (assay: phosphorylation enrichment, bacterial display (enrichment ratio); higher = better substrate or ligand; peptides without Tyr show the background).
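Also: 11-residue human phosphosite peptides and single-mutation variants displayed on the E. coli surface, counted by deep sequencing, each peptide's frequency after selection divided by its frequency in the unselected input library; frequency after pTyr selection over input frequency; kinase dosed for 20-30% of maximal phosphorylation in three min.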

Chain of EPHB2 (P29323 whole entry, looked up): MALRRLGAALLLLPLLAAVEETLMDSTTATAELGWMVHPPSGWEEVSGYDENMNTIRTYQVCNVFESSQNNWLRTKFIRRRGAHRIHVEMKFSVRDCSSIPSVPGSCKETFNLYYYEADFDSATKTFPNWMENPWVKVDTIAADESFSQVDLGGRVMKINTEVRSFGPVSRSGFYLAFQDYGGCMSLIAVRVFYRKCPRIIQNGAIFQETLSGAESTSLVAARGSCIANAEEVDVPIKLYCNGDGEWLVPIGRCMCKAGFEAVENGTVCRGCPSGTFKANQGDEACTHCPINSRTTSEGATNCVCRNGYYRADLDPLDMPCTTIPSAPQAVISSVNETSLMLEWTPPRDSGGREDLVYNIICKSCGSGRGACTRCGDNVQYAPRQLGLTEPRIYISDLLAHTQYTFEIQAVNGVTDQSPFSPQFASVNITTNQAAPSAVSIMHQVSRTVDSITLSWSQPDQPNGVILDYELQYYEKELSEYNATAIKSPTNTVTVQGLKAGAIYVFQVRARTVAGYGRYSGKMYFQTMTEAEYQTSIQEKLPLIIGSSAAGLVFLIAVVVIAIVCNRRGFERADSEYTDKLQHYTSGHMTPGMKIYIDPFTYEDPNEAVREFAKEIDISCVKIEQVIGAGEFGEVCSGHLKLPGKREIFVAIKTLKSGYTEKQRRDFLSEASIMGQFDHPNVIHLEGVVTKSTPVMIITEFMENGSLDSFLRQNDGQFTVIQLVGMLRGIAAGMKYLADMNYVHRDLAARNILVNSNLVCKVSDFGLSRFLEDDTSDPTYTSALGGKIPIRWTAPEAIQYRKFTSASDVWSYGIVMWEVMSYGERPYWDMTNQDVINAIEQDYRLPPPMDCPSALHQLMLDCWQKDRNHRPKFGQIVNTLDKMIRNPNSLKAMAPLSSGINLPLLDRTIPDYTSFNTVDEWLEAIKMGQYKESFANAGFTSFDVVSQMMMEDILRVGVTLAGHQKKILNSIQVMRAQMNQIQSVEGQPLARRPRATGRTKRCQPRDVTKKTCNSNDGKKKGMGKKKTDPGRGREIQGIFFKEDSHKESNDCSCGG

Compared with AKLKDYYIFNK [CCDC42_Y149], FEPWVYSLSFE [PRKDC_Y647_F649L_YF] is higher in phosphorylation enrichment: 0.594 for the first, 1.26 for the second.

Going from RSDSSYRMSAT [NHS_Y1532] to TFEPNYGTVKQ [RAPGEF6_Y1447_YF], the phosphorylation enrichment rises from 0.673 to 1.53.

Going from CTTIHYNFMWN [TP53_Y234_C238W_YF] to PLDGEYFSLQI [TP53_Y327_T329S], the phosphorylation enrichment rises from 0.727 to 1.24.

First: RTVPLYESLRK [DDB1_Y718_P721L]
Second: LKLIQYHLTQQ [AKAP4_Y554]
The phosphorylation enrichment of the first is higher: 26.1 for the first, 0.774 for the second.

Going from LITLVYGCSRQ [TMPRSS6_Y290_S288L] to FKPENYRRLDI [VHL_Y175_V170F], the phosphorylation enrichment falls from 0.876 to 0.425.

Going from EFRFIYMAVQH [PTPN11_Y515_Q510E_YF] to YDYKKYGKGLR [ZNF445_Y433], the phosphorylation enrichment falls from 0.737 to 0.276.

First: QLDQRYLLVPE [DDX49_Y223]
Second: LVTAWYIGFLC [KCNQ2_Y237]
The phosphorylation enrichment of the first is lower: 0.807 for the first, 0.95 for the second.

Compared with DAHFTYSRYPW [LY75_Y888_D884A], GGSSPYSRRLP [CDK13_Y351] is lower in phosphorylation enrichment: 5.6 for the first, 0.314 for the second.

Compared with ESAAIYNPVIY [RHO_Y301_K296E], TKQLTYEEQDL [PIK3C3_Y310] is lower in phosphorylation enrichment: 0.944 for the first, 0.653 for the second.

First: GSQERDFELVE [TSC2_Y407_Y407D]
Second: PVADRYDQSFE [MAPK14_Y323_P322R]
The phosphorylation enrichment of the first is lower: 0.492 for the first, 0.695 for the second.

Compared with YRIGPYQPSVP [MATR3_Y784_N787S], GLDGSYLLRFS [SH2D1A_Y29_D33Y_YF] is higher in phosphorylation enrichment: 0.434 for the first, 0.518 for the second.

Compared with SKNSKCNAEST [PSEN1_Y315_Y315C], GDPTEYYSTAI [IGSF22_Y501] is higher in phosphorylation enrichment: 0.463 for the first, 0.555 for the second.

First: TLLERYGMTKI [ACSF3_Y355_E359K]
Second: NYAKMYCNPDA [KNL1_Y489]
The phosphorylation enrichment of the first is lower: 0.594 for the first, 0.608 for the second.

Going from LLVVLYKFRCF [PSEN1_Y154_Y159F_YF] to DCPASYKKKSM [PDGFRA_Y768_R764C], the phosphorylation enrichment falls from 0.773 to 0.189.

What follows are sequences tested on c-Src in the same assay as above.

Going from AKLKDYYIFNK [CCDC42_Y149] to FEPWVYSLSFE [PRKDC_Y647_F649L_YF], the phosphorylation enrichment rises from 0.808 to 6.52.

First: RSDSSYRMSAT [NHS_Y1532]
Second: TFEPNYGTVKQ [RAPGEF6_Y1447_YF]
The phosphorylation enrichment of the first is lower: 0.585 for the first, 1.22 for the second.

First: CTTIHYNFMWN [TP53_Y234_C238W_YF]
Second: PLDGEYFSLQI [TP53_Y327_T329S]
The phosphorylation enrichment of the first is lower: 0.59 for the first, 5.24 for the second.

Compared with RTVPLYESLRK [DDB1_Y718_P721L], LKLIQYHLTQQ [AKAP4_Y554] is lower in phosphorylation enrichment: 8.53 for the first, 0.599 for the second.

First: LITLVYGCSRQ [TMPRSS6_Y290_S288L]
Second: FKPENYRRLDI [VHL_Y175_V170F]
The phosphorylation enrichment of the first is higher: 1.08 for the first, 0.312 for the second.

Compared with EFRFIYMAVQH [PTPN11_Y515_Q510E_YF], YDYKKYGKGLR [ZNF445_Y433] is lower in phosphorylation enrichment: 2.05 for the first, 0.346 for the second.

Compared with QLDQRYLLVPE [DDX49_Y223], LVTAWYIGFLC [KCNQ2_Y237] is higher in phosphorylation enrichment: 0.701 for the first, 1.15 for the second.

Going from DAHFTYSRYPW [LY75_Y888_D884A] to GGSSPYSRRLP [CDK13_Y351], the phosphorylation enrichment falls from 3.24 to 0.393.

Compared with ESAAIYNPVIY [RHO_Y301_K296E], TKQLTYEEQDL [PIK3C3_Y310] is lower in phosphorylation enrichment: 7.21 for the first, 0.539 for the second.

First: GSQERDFELVE [TSC2_Y407_Y407D]
Second: PVADRYDQSFE [MAPK14_Y323_P322R]
The phosphorylation enrichment of the first is lower: 0.523 for the first, 0.717 for the second.

Compared with YRIGPYQPSVP [MATR3_Y784_N787S], GLDGSYLLRFS [SH2D1A_Y29_D33Y_YF] is higher in phosphorylation enrichment: 0.449 for the first, 0.465 for the second.

First: SKNSKCNAEST [PSEN1_Y315_Y315C]
Second: GDPTEYYSTAI [IGSF22_Y501]
The phosphorylation enrichment of the first is lower: 0.383 for the first, 0.87 for the second.

Compared with TLLERYGMTKI [ACSF3_Y355_E359K], NYAKMYCNPDA [KNL1_Y489] is higher in phosphorylation enrichment: 0.43 for the first, 0.626 for the second.

Compared with LLVVLYKFRCF [PSEN1_Y154_Y159F_YF], RVGVDYEGGGC [PLOD1_Y675] is lower in phosphorylation enrichment: 0.937 for the first, 0.287 for the second.

For DCPASYKKKSM [PDGFRA_Y768_R764C], the phosphorylation enrichment was 0.253.

The sequences below were run on Fer (mouse) in the same assay as above.

Going from AKLKDYYIFNK [CCDC42_Y149] to FEPWVYSLSFE [PRKDC_Y647_F649L_YF], the phosphorylation enrichment rises from 0.457 to 1.41.

Compared with RSDSSYRMSAT [NHS_Y1532], TFEPNYGTVKQ [RAPGEF6_Y1447_YF] is higher in phosphorylation enrichment: 0.541 for the first, 0.881 for the second.

First: CTTIHYNFMWN [TP53_Y234_C238W_YF]
Second: PLDGEYFSLQI [TP53_Y327_T329S]
The phosphorylation enrichment of the first is higher: 1.04 for the first, 0.749 for the second.

Compared with RTVPLYESLRK [DDB1_Y718_P721L], LKLIQYHLTQQ [AKAP4_Y554] is lower in phosphorylation enrichment: 11.3 for the first, 0.711 for the second.

First: LITLVYGCSRQ [TMPRSS6_Y290_S288L]
Second: FKPENYRRLDI [VHL_Y175_V170F]
The phosphorylation enrichment of the first is higher: 0.848 for the first, 0.376 for the second.

Going from EFRFIYMAVQH [PTPN11_Y515_Q510E_YF] to YDYKKYGKGLR [ZNF445_Y433], the phosphorylation enrichment falls from 1.01 to 0.373.

Going from QLDQRYLLVPE [DDX49_Y223] to LVTAWYIGFLC [KCNQ2_Y237], the phosphorylation enrichment rises from 0.374 to 0.873.

Going from DAHFTYSRYPW [LY75_Y888_D884A] to GGSSPYSRRLP [CDK13_Y351], the phosphorylation enrichment falls from 0.5 to 0.317.

Compared with ESAAIYNPVIY [RHO_Y301_K296E], TKQLTYEEQDL [PIK3C3_Y310] is lower in phosphorylation enrichment: 17.5 for the first, 0.649 for the second.

Going from GSQERDFELVE [TSC2_Y407_Y407D] to PVADRYDQSFE [MAPK14_Y323_P322R], the phosphorylation enrichment rises from 0.46 to 0.518.

Going from YRIGPYQPSVP [MATR3_Y784_N787S] to GLDGSYLLRFS [SH2D1A_Y29_D33Y_YF], the phosphorylation enrichment falls from 0.429 to 0.424.

First: SKNSKCNAEST [PSEN1_Y315_Y315C]
Second: GDPTEYYSTAI [IGSF22_Y501]
The phosphorylation enrichment of the first is lower: 0.508 for the first, 0.738 for the second.

Compared with TLLERYGMTKI [ACSF3_Y355_E359K], NYAKMYCNPDA [KNL1_Y489] is higher in phosphorylation enrichment: 0.374 for the first, 0.59 for the second.

First: LLVVLYKFRCF [PSEN1_Y154_Y159F_YF]
Second: DCPASYKKKSM [PDGFRA_Y768_R764C]
The phosphorylation enrichment of the first is higher: 0.718 for the first, 0.384 for the second.

What follows are sequences tested on c-Abl (mouse) in the same assay as above.

Going from AKLKDYYIFNK [CCDC42_Y149] to FEPWVYSLSFE [PRKDC_Y647_F649L_YF], the phosphorylation enrichment rises from 0.65 to 0.672.

Going from RSDSSYRMSAT [NHS_Y1532] to TFEPNYGTVKQ [RAPGEF6_Y1447_YF], the phosphorylation enrichment falls from 0.679 to 0.522.

Going from CTTIHYNFMWN [TP53_Y234_C238W_YF] to PLDGEYFSLQI [TP53_Y327_T329S], the phosphorylation enrichment rises from 1.09 to 2.77.

Going from RTVPLYESLRK [DDB1_Y718_P721L] to LKLIQYHLTQQ [AKAP4_Y554], the phosphorylation enrichment falls from 1.07 to 0.646.

First: LITLVYGCSRQ [TMPRSS6_Y290_S288L]
Second: FKPENYRRLDI [VHL_Y175_V170F]
The phosphorylation enrichment of the first is higher: 0.978 for the first, 0.63 for the second.

First: EFRFIYMAVQH [PTPN11_Y515_Q510E_YF]
Second: YDYKKYGKGLR [ZNF445_Y433]
The phosphorylation enrichment of the first is higher: 1.16 for the first, 0.48 for the second.

First: QLDQRYLLVPE [DDX49_Y223]
Second: LVTAWYIGFLC [KCNQ2_Y237]
The phosphorylation enrichment of the first is lower: 0.665 for the first, 2.12 for the second.

Compared with DAHFTYSRYPW [LY75_Y888_D884A], GGSSPYSRRLP [CDK13_Y351] is lower in phosphorylation enrichment: 1.19 for the first, 0.504 for the second.

Going from ESAAIYNPVIY [RHO_Y301_K296E] to TKQLTYEEQDL [PIK3C3_Y310], the phosphorylation enrichment falls from 1.15 to 1.01.

Going from GSQERDFELVE [TSC2_Y407_Y407D] to PVADRYDQSFE [MAPK14_Y323_P322R], the phosphorylation enrichment rises from 0.69 to 0.844.

First: YRIGPYQPSVP [MATR3_Y784_N787S]
Second: GLDGSYLLRFS [SH2D1A_Y29_D33Y_YF]
The phosphorylation enrichment of the first is lower: 0.62 for the first, 0.644 for the second.

First: SKNSKCNAEST [PSEN1_Y315_Y315C]
Second: GDPTEYYSTAI [IGSF22_Y501]
The phosphorylation enrichment of the first is lower: 0.566 for the first, 0.636 for the second.

First: TLLERYGMTKI [ACSF3_Y355_E359K]
Second: NYAKMYCNPDA [KNL1_Y489]
The phosphorylation enrichment of the first is lower: 0.728 for the first, 0.989 for the second.

LLVVLYKFRCF [PSEN1_Y154_Y159F_YF] gave a phosphorylation enrichment of 1.77.
